Experimental data as given in patent CN114317455A.

Legend:
MCR-1蛋白 [1] = assay: double-antibody sandwich ELISA; 1HD4 coated at 0.2 mg/ml as capture, HRP-labelled 1JA9 as detection, OD450
MCR-1蛋白 [2] = assay: indirect ELISA; MCR-1 coated at 0.2 ug/mL; purified antibody (1 mg/ml) diluted two-fold from 1:1000; goat anti-mouse secondary

Binder | 检测抗原灵敏度 (dilution factor) (dilution factor (1:x)) (MCR-1蛋白 [1]) | 效价 (ELISA titer, dilution of 1 mg/ml antibody) (dilution factor (1:x)) (MCR-1蛋白 [2])
鼠抗MCR-1蛋白单克隆抗体 1JA9 (antibody, V domains shown) VH: VKLQESGPELVKPGASVKMSCRTSGYTFTSYIMHWVKQKPGQGLEWIGYFNPYTDGSKYNEMFNGKATLSSDKSSGTAYMEFSSLTSEDSAVYYCARGPYGNYAMDYWGQGTSVTVSA VL: EILLTQTPLSLPVSLGDQASISCRSSQNIVHSYGNPSLEWYLQKPGQSPKLLIYKVSNRFSGVPDRFSGSGSGTDFTLKISRVEAEDLGVYYCFQASHVPWTFGGGTKLEIKR | 5.12e+06 | > 1.28e+06
鼠抗MCR-1蛋白单克隆抗体 1HD4 (antibody, V domains shown) VH: VKLQESGPELVKPGASVKVSCKASGYIFTCCKMYWVKQSHGKSLEWIGYFDPYNGDTSSNQKFKGKVTLTVDKSSSTAYMFLNSLTSEDSAVYYCASWLQNYYAMDYWGQGTSVTVSS VL: DVQMTQTTSSLSASLGDRVTISCRASQDISNYLNWYQQKPDGTVKLLIYYTSRLHSGVPSRFSGSGSGADYSLTISNLEEEDIATYFCQQGNTFPYTFGGGTKLEIK | – | > 1.28e+06
